Results taken from patent publication US20010016194A1 (priority 1999, published 2001).

How the values were obtained:
14-3-3 proteins = experiment: COS cells transfected with IL-2Rβ chain constructs, immunoprecipitated with Mik-β1, blotted with anti-14-3-3; type: cell-based; details: transfected COS cell lysates, FIG. 8a
Protocol: (§1) COS cells were transfected via the DOTAP method (Boehringer-Mannheim, Indianapolis, Ind.) following the manufacturer's instructions. The transfection cocktail contained 5 μg of DNA total and […] of DOTAP in a final volume of […] HBS (25mM HEPES, pH 7.4 and lOOmM NaCl). The COS cells were grown in DMEM medium supplemented with 10% heat-inactivated fetal calf serum, penicillin/streptomycin, 25mM HEPES, pH 7.4, and L-glutamine. The COS cells were exposed to the transfection cocktail for 12 hours, washed and subsequently cultured in fresh medium. 24 hours after washing approximately 3×10^5 cells were harvested and washed twice in chilled PBS. A lysis buffer was prepared and consisted of […] NaCl, 50mM Tris pH=7.4, 0.5% CHAPS (Pierce), […] (Sigma), supplemented with the following protease inhibitors immediately before use: aprotinin (Sigma) 2.5mg/ml, leupeptin (Boehringer-Mannheim) 2.5 mg/ml; Pepstatin A (Boehringer-Mannheim) […], PMSF (Sigma) […], NaF (Sigma) 100mm and sodium orthovanadate (Sigma) lmM. The transfected COS cells were lysed in 0.5 ml of lysis buffer on ice for 10 minutes, and subsequently centrifuged at 12,000 xg for 5 minutes, remaining supernatants were collected, and supplemented with pre-immune serum and protein G-agarose beads (BRL-Gibco, Gaithersburg, MD), which had been previously washed in lysis buffer. […]

[1] = target: T1, Raf-1 proteins present in T-cell lysates (Homo sapiens, UniProt P04049); experiment: Cell-free system: binding of Raf-1 from T-cell lysates to FLAG-HMK-IL-2Rβ chain fusion proteins on anti-FLAG beads, anti-Raf-1 immunoblot; details: lysates from PHA activated peripheral blood mononuclear cells, FIG. 8b
T1 construct: endogenous in cells; host or cells: PHA-stimulated human peripheral blood mononuclear cells (T cells), lysate
Text: (ii) In order to study the interaction of IL-2Rβ chain with intracellular molecules, the FLAG-HMK-IL-2Rβ chain cytoplasmic domain fusion protein was purified from bacterial lysate using the M2 anti-FLAG monoclonal antibody in a standard affinity chromatography procedure. More specifically, bacterial lysate proteins were absorbed onto anti-FLAG (M2) affinity column (IBI-Kodak, New Haven, Conn., USA). After washing the column, the adsorbed proteins were eluted with either glycine buffer (pH 3) or FLAG peptide (10^−4M). Proteins in various fractions were analyzed for expected size (about 33 kDa) and purity after separation on SDS-PAGE and Commassie blue staining. The presence of a functional HMK recognition site was confirmed by phosphorylation of the purified 33 kDa IL-2Rβ chain fusion protein by HMK. More specifically, the eluted fusion proteins were tested for susceptibility to phosphorylation by incubation with the catalytic subunit of bovine heart muscle kinase (Sigma) (1 U/ul) in buffer containing 20 mM Tric-HCl, pH 7.5, 1 mM DTT, 100 mM NaCl, 10 mM MgCl2 and 1μCi [γ^32p] ATP for 30 min at 37° C. followed by SDS-PAGE and autoradiography. Purified FLAG-HMK-IL-2Rβ chain fusion proteins were used as an affinity reagent to probe for cytosolic proteins present in lysates of human T cells, metabolically labeled with [^35S ]-methionine, that bind to the IL-2Rβ chain. […] For [^35S]-methionine labeling, the cells were suspended at 4×10^7 cells/ml at 37° C. followed by addition of 0.5 mCi of [^35S]-methionine for 4 hours prior to lysis in Dounce homogenization buffer and application of the lysate to the affinity column. Several [^35S]-labeled proteins were retained by the FLAG-HMK-IL-2Rβ chain cytosolic domain fusion protein bound to the affinity column. One of these proteins was identified as Raf-1 by immunoblotting using a polyclonal antibody specific for the SP-63 peptide which corresponds to the C-terminal fragment of Raf-1. A molar excess of the competing SP-63 peptide blocked binding of the anti-SP-63 antibody to Raf-1.
Using the basic cell-free system described above, a number of FLAG-HMK-IL-2Rβ chain wild type FLAG-HMK-IL2Rβ chain deletion mutant proteins were then studied with respect to this specific interaction with Raf-i proteins present in T-cell lysates. These FLAG-HMK-IL2Rβ chain wild type (WT) and deletion mutants lacking certain defined domains of the IL-2Rβ chain were used to identify the IL-2Rβ chain domain involved in Raf-1 binding. Assay conditions were similar to those described above. […] In FIG. 1, there is shown, schematically, all of the constructs, i.e., FLAG-HMK-IL-2Rβ chain fusion proteins produced in transformed bacterial cells and used in this study. These FLAG-HMK- fusion proteins-coated beads were then used as affinity reagents to absorb Raf-1 proteins present in T-cell lysates. T-cell derived proteins bound to FLAG-HMK fusion proteins were then eluted using buffer containing FLAG peptide, separated on SDS-PAGE, transferred onto Immobilon membrane and blotted with anti-Raf-1 antibody.
The absorbed proteins were washed, eluted with FLAG peptide and probed for the presence of Raf-1 and 14-3-3 proteins on immunoblots. […] Washed cells (about 4×10^7) were lysed in Dounce homogenization buffer, centrifuged (15×10^3 xg for 15 min.) and supernatants applied onto washed anti-FLAG (M2) affinity column (IBI-Kodak) coated with bacterial lysates interacted with one of the FLAG-HMK fusion proteins. […]

Raf-1 = experiment: COS cells transfected with IL-2Rβ chain constructs, immunoprecipitated with Mik-β1, blotted with anti-Raf-1; type: cell-based; details: transfected COS cell lysates, FIG. 8a
Protocol: as §1

- binding to Raf-1 [1]: bound to Raf-1
B1: IL-2Rβ-WT: human IL-2Rβ chain wild type expressed in COS cells from pRcCMV (protein)
chain: AVNGTSQFTCFYNSRANISCVWSQDGALQDTSCQVHAWPDRRRWNQTCELLPVSQASWACNLILGAPDSQKLTTVDIVTLRVLCREGVRWRVMAIQDFKPFENLRLMAPISLQVVHVETHRCNISWEISQASHYFERHLEFEARTLSPGHTWEEAPLLTLKQKQEWICLETLTPDTQYEFQVRVKPLQGEFTTWSPWSQPLAFRTKPAALGKDTIPWLGHLLVGLSGAFGFIILVYLLINCRNTGPWLKKVLKCNTPDPSKFFSQLSSEHGGDVQKWLSSPFPSSSFSPGGLAPEISPLEVLERDKVTQLLLQQDKVPEPASLSSNHSLTSCFTNQGYFFFHLPDALEIEACQVYFTYDPYSEEDPDEGVAGAPTGSSPQPLQPLSGEDDAYCTFPSRDDLLLFSPSLLGGPSPPSTAPGGSGAGEERMPPSLQERVPRDWDPQPLGPPTPGVPDLVDFQPPPELVLREAGEEVPDAGPREGVSFPWSRPPGQGEFRALNARLPLNTDAYLSLQELQGQDPTHLV
- binding of 14-3-3 proteins (14-3-3 proteins): bound
- binding of Raf-1 (Raf-1): bound
